Drawing on paper PMC10786891, “Massively parallel profiling of RNA-targeting CRISPR-Cas13d”, this text covers Kd for 36 molecules.

Residue numbers refer to the chain shown, from its start.

To fix the notation:
T1: EsCas13d, nuclease-dead (Eubacterium siraeum, UniProt B0MS50, R295A;H300A;R849A;H854A)
T1 sequence: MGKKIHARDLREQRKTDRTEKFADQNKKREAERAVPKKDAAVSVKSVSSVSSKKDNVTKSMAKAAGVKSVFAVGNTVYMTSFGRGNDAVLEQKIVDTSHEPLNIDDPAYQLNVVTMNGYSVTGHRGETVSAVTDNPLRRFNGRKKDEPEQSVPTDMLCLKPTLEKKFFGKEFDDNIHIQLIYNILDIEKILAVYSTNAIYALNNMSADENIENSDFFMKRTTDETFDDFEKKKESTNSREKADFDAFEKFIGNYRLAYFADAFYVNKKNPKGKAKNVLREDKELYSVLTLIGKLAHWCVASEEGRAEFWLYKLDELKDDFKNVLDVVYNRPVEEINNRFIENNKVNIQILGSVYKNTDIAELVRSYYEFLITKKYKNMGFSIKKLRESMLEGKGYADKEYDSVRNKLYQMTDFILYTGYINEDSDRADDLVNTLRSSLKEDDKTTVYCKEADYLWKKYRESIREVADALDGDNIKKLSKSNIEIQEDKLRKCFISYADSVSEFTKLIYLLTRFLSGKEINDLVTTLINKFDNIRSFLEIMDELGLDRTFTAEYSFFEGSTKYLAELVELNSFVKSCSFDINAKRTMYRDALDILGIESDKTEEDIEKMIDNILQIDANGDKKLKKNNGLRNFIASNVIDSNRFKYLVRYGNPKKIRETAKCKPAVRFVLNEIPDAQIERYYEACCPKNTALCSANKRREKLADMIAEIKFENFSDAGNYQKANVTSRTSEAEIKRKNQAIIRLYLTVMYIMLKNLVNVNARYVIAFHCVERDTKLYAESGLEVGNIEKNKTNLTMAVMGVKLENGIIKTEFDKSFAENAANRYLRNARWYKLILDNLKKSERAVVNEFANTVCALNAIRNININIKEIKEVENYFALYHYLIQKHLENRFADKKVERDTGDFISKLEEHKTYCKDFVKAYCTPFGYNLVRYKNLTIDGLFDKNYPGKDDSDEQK

B1: target 1 insC 3' of 9,insC 3' of 1 (mixed)
RNA 1: CACCCGUGCAAAAAUGCAGGGGUCUAAAACUGAGCGGAUAACCUCUCUAUGG
RNA 2: GGGAAUGGAUCCACAUCUACGAAUUCGUACCAUAGAGAGGUUACUCCGCUCACCCGAGAUCGGAAGAGCACACGU
B2: target 1 insU 3' of 18,insG 3' of 7 (mixed)
RNA 1: B1 RNA 1
RNA 2: GGGAAUGGAUCCACAUCUACGAAUUCGUACCAUAUGAGAGGUUAUCGCGCUCACCGAGAUCGGAAGAGCACACGU
B3: target 1 insU 3' of 5,insA 3' of 4 (mixed)
RNA 1: B1 RNA 1
RNA 2: B1 RNA 2 with C44U, U45C, C47G, G48U, U50A, C51U, A52C, C53A
B4: target 2 MT 5'PFS UAA 3'PFS UAU (mixed)
RNA 1: CACCCGUGCAAAAUUGCAGGGGUCUAAAACCUUCUCCAAAUUGUUUCAUCCU
RNA 2: GGGAAUGGAUCCACAUCUACGAAUUCUAAAGGAUGAAACAAUUUGGAGAAGUAUAGAUCGGAAGAGCACACGU
B5: target 2 MT 5'PFS CUG 3'PFS UAC (mixed)
RNA 1: B4 RNA 1
RNA 2: B4 RNA 2 with U27C, A28U, A29G, U54C
B6: target 2 MT 5'PFS AUU 3'PFS AGC (mixed)
RNA 1: B4 RNA 1
RNA 2: B4 RNA 2 with U27A, A28U, A29U, U52A, A53G, U54C
B7: target 2 MT 5'PFS UAG 3'PFS UGU (mixed)
RNA 1: B4 RNA 1
RNA 2: B4 RNA 2 with A29G, A53G
B8: target 2 MT 5'PFS AAC 3'PFS UGU (mixed)
RNA 1: B4 RNA 1
RNA 2: B4 RNA 2 with U27A, A29C, A53G
B9: target 2 MT 5'PFS GAC 3'PFS UUG (mixed)
RNA 1: B4 RNA 1
RNA 2: B4 RNA 2 with U27G, A29C, A53U, U54G
B10: target 2 MT 5'PFS AAA 3'PFS AAC (mixed)
RNA 1: B4 RNA 1
RNA 2: B4 RNA 2 with U27A, U52A, U54C
B11: target 2 MT 5'PFS CAU 3'PFS ACU (mixed)
RNA 1: B4 RNA 1
RNA 2: B4 RNA 2 with U27C, A29U, U52A, A53C
B12: target 2 MT 5'PFS AGA 3'PFS CCA (mixed)
RNA 1: B4 RNA 1
RNA 2: B4 RNA 2 with U27A, A28G, U52C, A53C, U54A
B13: target 2 MT 5'PFS GGA 3'PFS ACC (mixed)
RNA 1: B4 RNA 1
RNA 2: B4 RNA 2 with U27G, A28G, U52A, A53C, U54C
B14: target 2 MT 5'PFS AUU 3'PFS AGU (mixed)
RNA 1: B4 RNA 1
RNA 2: B4 RNA 2 with U27A, A28U, A29U, U52A, A53G
B15: target 2 MT 5'PFS AGA 3'PFS UAC (mixed)
RNA 1: B4 RNA 1
RNA 2: B4 RNA 2 with U27A, A28G, U54C
B16: target 2 MT 5'PFS AUU 3'PFS CGG (mixed)
RNA 1: B4 RNA 1
RNA 2: B4 RNA 2 with U27A, A28U, A29U, U52C, A53G, U54G
B17: target 2 MT 5'PFS AGA 3'PFS UAU (mixed)
RNA 1: B4 RNA 1
RNA 2: B4 RNA 2 with U27A, A28G
B18: target 2 MT 5'PFS AGA 3'PFS CCG (mixed)
RNA 1: B4 RNA 1
RNA 2: B4 RNA 2 with U27A, A28G, U52C, A53C, U54G
B19: target 2 MT 5'PFS UUG 3'PFS CUC (mixed)
RNA 1: B4 RNA 1
RNA 2: B4 RNA 2 with A28U, A29G, U52C, A53U, U54C
B20: target 2 MT 5'PFS CUG 3'PFS UAG (mixed)
RNA 1: B4 RNA 1
RNA 2: B4 RNA 2 with U27C, A28U, A29G, U54G
B21: target 2 MT 5'PFS GAC 3'PFS UUA (mixed)
RNA 1: B4 RNA 1
RNA 2: B4 RNA 2 with U27G, A29C, A53U, U54A
B22: target 2 MT 5'PFS CGU 3'PFS CGC (mixed)
RNA 1: B4 RNA 1
RNA 2: B4 RNA 2 with U27C, A28G, A29U, U52C, A53G, U54C
B23: target 2 MT 5'PFS GAU 3'PFS UUC (mixed)
RNA 1: B4 RNA 1
RNA 2: B4 RNA 2 with U27G, A29U, A53U, U54C
B24: target 2 MT 5'PFS GGA 3'PFS ACG (mixed)
RNA 1: B4 RNA 1
RNA 2: B4 RNA 2 with U27G, A28G, U52A, A53C, U54G
B25: target 2 MT 5'PFS ACU 3'PFS AUU (mixed)
RNA 1: B4 RNA 1
RNA 2: B4 RNA 2 with U27A, A28C, A29U, U52A, A53U
B26: target 2 MT 5'PFS UGC 3'PFS CAC (mixed)
RNA 1: B4 RNA 1
RNA 2: B4 RNA 2 with A28G, A29C, U52C, U54C
B27: target 2 MT 5'PFS ACU 3'PFS AUG (mixed)
RNA 1: B4 RNA 1
RNA 2: B4 RNA 2 with U27A, A28C, A29U, U52A, A53U, U54G
B28: target 2 MT 5'PFS UAG 3'PFS UGC (mixed)
RNA 1: B4 RNA 1
RNA 2: B4 RNA 2 with A29G, A53G, U54C
B29: target 2 MT 5'PFS AUU 3'PFS AGG (mixed)
RNA 1: B4 RNA 1
RNA 2: B4 RNA 2 with U27A, A28U, A29U, U52A, A53G, U54G
B30: target 2 MT 5'PFS AUU 3'PFS AGA (mixed)
RNA 1: B4 RNA 1
RNA 2: B4 RNA 2 with U27A, A28U, A29U, U52A, A53G, U54A
B31: target 2 MT 5'PFS ACU 3'PFS AUC (mixed)
RNA 1: B4 RNA 1
RNA 2: B4 RNA 2 with U27A, A28C, A29U, U52A, A53U, U54C
B32: target 2 MT 5'PFS AUU 3'PFS CGA (mixed)
RNA 1: B4 RNA 1
RNA 2: B4 RNA 2 with U27A, A28U, A29U, U52C, A53G, U54A
B33: target 2 MT 5'PFS GGA 3'PFS ACA (mixed)
RNA 1: B4 RNA 1
RNA 2: B4 RNA 2 with U27G, A28G, U52A, A53C, U54A
B34: target 2 MT 5'PFS GAC 3'PFS UUC (mixed)
RNA 1: B4 RNA 1
RNA 2: B4 RNA 2 with U27G, A29C, A53U, U54C
B35: target 2 MT 5'PFS GGA 3'PFS ACU (mixed)
RNA 1: B4 RNA 1
RNA 2: B4 RNA 2 with U27G, A28G, U52A, A53C
B36: target 2 MT 5'PFS UUG 3'PFS UUC (mixed)
RNA 1: B4 RNA 1
RNA 2: B4 RNA 2 with A28U, A29G, A53U, U54C

This data set addresses T1, EsCas13d, nuclease-dead. Kind of data set: crRNA (strand 1, pre-loaded); Mg2+; 40 mM Tris-HCl pH 7.5, 150 mM NaCl, 6 mM MgCl2, 1 mM DTT, 0.1% Tween-20, 0.2 mg/ml BSA; 25 C; 10 min per concentration, then washed. Conditions: tags: His6-TwinStrep-SUMO cleaved; N-terminal SNAP kept (SNAP-Surface 488); label: 3' end held by stalled T7 RNA polymerase.
Consider B1, for which the affinity, expressed as Kd, was 9.4 ± 0.6 nM.

As for B2, binding was characterised by a dissociation constant (Kd) of 25.5 ± 1.2 nM.

On to B3, for which binding was characterised by a dissociation constant (Kd) of 16.2 ± 1.2 nM.

Molecule B4 registered a Kd of 3.7 ± 1 nM.

B5 displayed a Kd of 2.76 ± 0.35 nM.

For the molecule B6, the Kd was 6.4 ± 0.8 nM.

In the case of B7, the affinity, expressed as Kd, was 4.9 ± 0.5 nM.

Regarding B8, binding was characterised by a dissociation constant (Kd) of 6.9 ± 1.2 nM.

Molecule B9 returned a Kd of 15 ± 4 nM.

In the case of B10, the affinity, expressed as Kd, was 4.6 ± 0.7 nM.

Turning to B11, the Kd is 9 ± 1.9 nM.

On to B12, for which the Kd was around 24 nM.

Regarding B13, the Kd was determined as 14.1 ± 2.6 nM.

For B14, the Kd worked out at 4.5 ± 0.4 nM.

As to B15, the Kd was found to be 6.5 ± 1.1 nM.

B16 had a Kd of 9.6 ± 1.7 nM.

B17 returned a Kd of 7.4 ± 1.4 nM.

In turn, B18 came in with a Kd of 8.3 ± 1.1 nM.

Consider B19, for which the Kd stood at 37 ± 8 nM.

Molecule B20 had a Kd of 3.1 ± 0.5 nM.

In the case of B21, binding was put at a Kd of 14.3 ± 3 nM.

In the case of B22, the Kd was 11.1 ± 1.7 nM.

For B23, the affinity, expressed as Kd, was 28 ± 7 nM.

B24 had a Kd of 13.9 ± 1.4 nM.

As to B25, the Kd is 4.4 ± 0.6 nM.

For B26, binding was characterised by a dissociation constant (Kd) of 18 ± 4 nM.

B27 gave a Kd of 4.9 ± 0.6 nM.

In the case of B28, the Kd came out at 2.73 ± 0.25 nM.

As for B29, the Kd came to 13 ± 2.9 nM.

The molecule B30 gave a Kd of 5.4 ± 0.8 nM.

With B31, the affinity, expressed as Kd, was 4.1 ± 0.4 nM.

Molecule B32 had a Kd of 5.5 ± 0.4 nM.

B33: binding was put at a Kd of 10.4 ± 1.2 nM.

Consider B34, for which the affinity, expressed as Kd, was 33 ± 12 nM.

Molecule B35 returned a Kd of 9.8 ± 0.7 nM.

The molecule B36 had a Kd of 64 ± 20 nM.

In general, Kd refers to the equilibrium constant for the complex coming apart. A low value points to a tighter complex.
